Reference: paper PMC9995077 (Science Advances, 2023)

Experiments:
Ino80-K929R-FLAG = Ino80-K929R-FLAG (S. cerevisiae, UniProt P53115 1-1489, K929R); experiment: co-IP
[1] = target: Ino80-FLAG (endogenously expressed FLAG-tagged Ino80) (S. cerevisiae (endogenous in yeast …, UniProt P53115 1-1489)); experiment: co-IP
Sequence of Ino80-FLAG (endogenously expressed FLAG-tagged Ino80) (S. cerevisiae (P53115 whole entry): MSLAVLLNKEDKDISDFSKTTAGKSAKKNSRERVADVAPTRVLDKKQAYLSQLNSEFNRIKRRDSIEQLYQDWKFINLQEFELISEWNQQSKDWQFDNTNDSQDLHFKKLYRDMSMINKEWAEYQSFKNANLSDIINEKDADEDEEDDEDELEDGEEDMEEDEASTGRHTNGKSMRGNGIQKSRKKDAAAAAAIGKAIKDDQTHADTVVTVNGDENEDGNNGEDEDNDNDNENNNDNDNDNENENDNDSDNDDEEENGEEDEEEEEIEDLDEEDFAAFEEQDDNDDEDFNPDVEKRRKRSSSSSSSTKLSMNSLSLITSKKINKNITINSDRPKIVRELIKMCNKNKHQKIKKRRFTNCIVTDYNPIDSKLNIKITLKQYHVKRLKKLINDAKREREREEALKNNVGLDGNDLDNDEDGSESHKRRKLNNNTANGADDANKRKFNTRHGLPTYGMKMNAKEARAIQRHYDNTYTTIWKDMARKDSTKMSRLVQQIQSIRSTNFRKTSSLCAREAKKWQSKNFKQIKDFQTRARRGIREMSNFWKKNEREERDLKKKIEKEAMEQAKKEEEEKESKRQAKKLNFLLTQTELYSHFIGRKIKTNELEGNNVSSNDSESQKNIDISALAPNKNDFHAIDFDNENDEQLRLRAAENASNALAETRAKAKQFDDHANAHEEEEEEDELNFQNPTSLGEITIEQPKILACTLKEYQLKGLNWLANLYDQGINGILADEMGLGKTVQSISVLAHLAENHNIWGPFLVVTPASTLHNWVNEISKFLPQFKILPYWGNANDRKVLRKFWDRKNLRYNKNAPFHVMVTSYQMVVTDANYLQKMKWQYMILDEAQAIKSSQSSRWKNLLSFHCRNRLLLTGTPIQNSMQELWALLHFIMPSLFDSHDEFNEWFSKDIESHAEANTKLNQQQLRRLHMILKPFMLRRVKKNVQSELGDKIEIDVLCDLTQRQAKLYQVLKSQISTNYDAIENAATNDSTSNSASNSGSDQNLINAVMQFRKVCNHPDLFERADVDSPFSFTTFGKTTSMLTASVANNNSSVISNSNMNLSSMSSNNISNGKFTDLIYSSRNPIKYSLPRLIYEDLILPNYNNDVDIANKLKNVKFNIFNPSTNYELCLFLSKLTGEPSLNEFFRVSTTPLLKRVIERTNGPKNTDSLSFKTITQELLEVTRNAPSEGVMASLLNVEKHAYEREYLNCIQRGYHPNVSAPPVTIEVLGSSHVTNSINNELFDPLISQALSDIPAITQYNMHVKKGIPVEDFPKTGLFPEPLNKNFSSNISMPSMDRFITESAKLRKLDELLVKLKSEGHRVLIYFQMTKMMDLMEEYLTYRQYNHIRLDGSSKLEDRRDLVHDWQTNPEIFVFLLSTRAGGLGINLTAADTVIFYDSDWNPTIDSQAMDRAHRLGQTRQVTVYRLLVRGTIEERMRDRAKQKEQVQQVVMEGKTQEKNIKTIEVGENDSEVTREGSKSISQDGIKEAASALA

Sequence of Ino80-K929R-FLAG (P53115 whole entry K929R): as the sequence (P53115 whole entry) above, with K929R counted along it

B1: Atg11-CBP (tandem affinity-purified Atg11) (natural protein)
chain: MADADEYSTAPTQQEITPLQTTATIINAISGECITTNVDFFVSLDKFKQFIARKWKIPPDQLLILLPYGNKLKPSMFKELLINRSFTLNDFYVYDRRLFSLVSKPTPTNLLTSKDSNPMNSPNSNDLTETLEYLIKNSHISQYQGSDTIMIKPMPSPLEDADVDLSRLNYHSVTSLLTTNLGWLSALEIDVHYFKSLIPDIIAHIKRIFDGLTVCSQYLKLYCFDVESLYNSNVQFLNQLVDNGMTSKWEKCFNDTLSKLTALEGDSLQKFINIESLLENEKSVKILNHSINGKLNKIKREIDENASFRDIITVNIDRLRQMFTPNESKFELEDQMAESFEVLVSEMRTRSRNVLDKEEEEFNSQEFLKSMNVMLEKDKKESVKTLFTISQALYSQIGELIDLKKSLQKHAVAILGNIAFTQMEILGIKRLLLNECNKDLELYKKYEVEFAQVEDLPLIYGLYLIEKYRRLSWFQQILSFISNFNQDLELFKQNELRTRNKWVKNFGSIATVFCEDLLSSSDFKRLNEYHSHTSPPNEDEEDENENSIANYRQDLVKVSQAIDNYMTQIKETDVSEPIIDLLSKTLFETKRFHIIYSNFKNNNNNSSNGNSISPEGSIALKSDDVVKGYKTRIKKLESLLHEFQYSDIGHWPQGVLNTHLKPFRGSATSINKKKFLGASVLLEPANISEVNIDSVSQANNHQIQELESNVDDLLHQLQLLKEENNRKSMQISEMGKKISDLEVEKTAYRETLTNLNQELARLTNEEQSHRTEIFTLNASFKKQLNDIISQDNEKIEKLTGDYDDVSKSRERLQMDLDESNKKHEQEVNLLKADIERLGKQIVTSEKSYAETNSSSMEKGEKFETIPLAEDPGRENQISAYTQTLQDRIFDIISTNIFILENIGLLLTFDNNNNIQIRRVKGLKKGTAQSNILDESTQMLDAHDNSLIKSPVFQKLKDEYELIKSVANGSEKDTQQSIFLGNITQLYDNKLYEVAVIRRFKDIETLAKKLTKENKIKRTLLERFQREKVTLRNFQIGDLALFLPTRENVNSVGSMSSSTSSLSSSFSSVDLSTPPPLDAMSIQSSPSVIHSNVINQASISGRDKNKLMRPWAAFTAFEESTRYFLKDEKGLTKGKEWFVGRIVTLEHFVADSPSNNPFRLPKGSVWFQVTAVVVSYQGV
- binding result (Ino80-K929R-FLAG): binds
- binding result [1]: binds
